Consider two molecules from article PMC11529724 (Nature chemical biology, 2024).

Assay [1] deals with microtubules assembled from porcine brain tubulin (porcine, UniProt P02550 1-451; P02554 1-445). The assay is described as follows: co-sedimentation.
Assay [2] addresses subtilisin-treated unmodified human microtubules missing their β-tubulin tails (human (endogenous in tsA201), UniProt P68363 1-451; P07437 1-444). The assay is described as follows: TIRF microscopy binding assay.

Sequence of subtilisin-treated unmodified human microtubules missing their β-tubulin tails (P68363 whole entry, chain 1 of 2): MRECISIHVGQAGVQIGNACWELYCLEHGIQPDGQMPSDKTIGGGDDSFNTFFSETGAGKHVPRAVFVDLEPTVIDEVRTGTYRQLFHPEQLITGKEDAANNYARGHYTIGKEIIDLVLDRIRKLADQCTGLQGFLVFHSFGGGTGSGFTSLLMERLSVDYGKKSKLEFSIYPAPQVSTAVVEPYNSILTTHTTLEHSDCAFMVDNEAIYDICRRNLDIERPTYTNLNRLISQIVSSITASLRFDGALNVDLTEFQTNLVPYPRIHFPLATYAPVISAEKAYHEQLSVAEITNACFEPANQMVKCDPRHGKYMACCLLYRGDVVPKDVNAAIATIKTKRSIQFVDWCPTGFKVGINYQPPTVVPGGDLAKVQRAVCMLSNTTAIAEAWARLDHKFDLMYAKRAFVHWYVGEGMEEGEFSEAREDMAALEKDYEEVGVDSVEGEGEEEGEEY
Sequence of subtilisin-treated unmodified human microtubules missing their β-tubulin tails (P07437 1-427, chain 2 of 2): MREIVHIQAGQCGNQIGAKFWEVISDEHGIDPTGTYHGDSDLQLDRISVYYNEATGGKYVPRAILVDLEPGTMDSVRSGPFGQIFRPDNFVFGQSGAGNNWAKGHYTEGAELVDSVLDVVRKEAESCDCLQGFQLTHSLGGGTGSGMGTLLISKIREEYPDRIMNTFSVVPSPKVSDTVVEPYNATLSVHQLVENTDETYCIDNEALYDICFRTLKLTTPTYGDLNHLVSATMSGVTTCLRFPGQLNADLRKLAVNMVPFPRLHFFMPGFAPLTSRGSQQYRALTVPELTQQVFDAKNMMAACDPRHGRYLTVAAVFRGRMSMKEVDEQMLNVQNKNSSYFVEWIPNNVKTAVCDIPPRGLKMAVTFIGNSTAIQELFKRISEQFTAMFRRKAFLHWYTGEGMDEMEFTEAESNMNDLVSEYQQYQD
Sequence of microtubules assembled from porcine brain tubulin (P02550 whole entry, chain 1 of 2): as the sequence (P68363 whole entry, chain 1 of 2) above, with L136S, S232G, I265A, S340T, Q358E counted along it
Sequence of microtubules assembled from porcine brain tubulin (P02554 whole entry, chain 2 of 2): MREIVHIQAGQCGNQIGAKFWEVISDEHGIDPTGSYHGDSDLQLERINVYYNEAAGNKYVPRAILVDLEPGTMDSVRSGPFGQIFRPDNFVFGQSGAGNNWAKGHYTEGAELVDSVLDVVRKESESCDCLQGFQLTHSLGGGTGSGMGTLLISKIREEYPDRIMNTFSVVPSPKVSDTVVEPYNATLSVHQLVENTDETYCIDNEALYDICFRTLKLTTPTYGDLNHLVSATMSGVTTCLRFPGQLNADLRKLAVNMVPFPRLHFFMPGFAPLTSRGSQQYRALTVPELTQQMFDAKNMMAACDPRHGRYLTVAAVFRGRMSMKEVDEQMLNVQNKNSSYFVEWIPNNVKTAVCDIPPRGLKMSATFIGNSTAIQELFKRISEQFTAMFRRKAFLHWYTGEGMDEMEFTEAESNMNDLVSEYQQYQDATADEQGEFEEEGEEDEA

Regarding FQDNSSLFQNTVASRARELYARQLIQELRQKQEKKVFLKKARK (domain or fragment, Mus musculus, UniProt A4Q9E8 460-502, looked up) [TTLL6 MTBH1-2 (460–502)], the Kd in assay [1] worked out at 3.7 µM.

B1: Atto488-labeled TTLL6 (enzyme, Mus musculus, UniProt A4Q9E8 51-502, looked up)
chain: GKKKRKKKRLVINLSNCRYDSVRRAAQQYGLREAGDNDDWTLYWTDYSVSLERVMEMKSYQKINHFPGMSEICRKDLLARNMSRMLKLFPKDFHFFPRTWCLPADWGDLQTYSRTRKNKTYICKPDSGCQGRGIFITRSVKEIKPGEDMICQLYISKPFIIDGFKFDLRVYVLVTSCDPLRVFVYNEGLARFATTSYSHPNLDNLDEICMHLTNYSINKHSSNFVQDAFSGSKRKLSTFNSYMKTHGYDVEQIWRGIEDVIIKTLISAHPVIKHNYHTCFPSHTLNSACFEILGFDILLDRKLKPWLLEVNHSPSFSTDSKLDKEVKDSLLYDALVLINLGNCDKKKVLEEERQRGRFLQQCPNREIRLEEVKGFQAMRLQKTEEYEKKNCGGFRLIYPGLNLEKYDKFFQDNSSLFQNTVASRARELYARQLIQELRQKQEKKVFLKKARK
modifications: Atto488 on the N-terminus, through the synthetic peptide NH2-(Atto488)-LPETGGGG ligated with sortase
As to B1, the “fold decrease in recruitment against MTs with intact β-tails” value in assay [2] was about 18 fold.
